Experimental data published in PMC8137924, “Structural basis for allosteric regulation of Human Topoisomerase IIα” (Nature Communications, 2021).

Biological target: the molecule itself
Test: cryo-EM structure; hTopo IIα with 30 bp doubly nicked DNA (1:1, 20 µM), 0.5 mM etoposide, 0.5 mM ADPNP, cross-linked with 1 mM BS3; 20 mM Hepes, 100 mM KAc, 50 mM Na-glutamate, 5 mM MgAc2, 0.5 mM TCEP, pH 7.5, 8 mM CHAPSO; single-particle analysis, State 1 (closed) and State 2 (pre-open)

B1: full-length human Topo IIα (1–1531) (enzyme, UniProt P11388 1-1531, looked up)
chain: MEVSPLQPVNENMQVNKIKKNEDAKKRLSVERIYQKKTQLEHILLRPDTYIGSVELVTQQMWVYDEDVGINYREVTFVPGLYKIFDEILVNAADNKQRDPKMSCIRVTIDPENNLISIWNNGKGIPVVEHKVEKMYVPALIFGQLLTSSNYDDDEKKVTGGRNGYGAKLCNIFSTKFTVETASREYKKMFKQTWMDNMGRAGEMELKPFNGEDYTCITFQPDLSKFKMQSLDKDIVALMVRRAYDIAGSTKDVKVFLNGNKLPVKGFRSYVDMYLKDKLDETGNSLKVIHEQVNHRWEVCLTMSEKGFQQISFVNSIATSKGGRHVDYVADQIVTKLVDVVKKKNKGGVAVKAHQVKNHMWIFVNALIENPTFDSQTKENMTLQPKSFGSTCQLSEKFIKAAIGCGIVESILNWVKFKAQVQLNKKCSAVKHNRIKGIPKLDDANDAGGRNSTECTLILTEGDSAKTLAVSGLGVVGRDKYGVFPLRGKILNVREASHKQIMENAEINNIIKIVGLQYKKNYEDEDSLKTLRYGKIMIMTDQDQDGSHIKGLLINFIHHNWPSLLRHRFLEEFITPIVKVSKNKQEMAFYSLPEFEEWKSSTPNHKKWKVKYYKGLGTSTSKEAKEYFADMKRHRIQFKYSGPEDDAAISLAFSKKQIDDRKEWLTNFMEDRRQRKLLGLPEDYLYGQTTTYLTYNDFINKELILFSNSDNERSIPSMVDGLKPGQRKVLFTCFKRNDKREVKVAQLAGSVAEMSSYHHGEMSLMMTIINLAQNFVGSNNLNLLQPIGQFGTRLHGGKDSASPRYIFTMLSSLARLLFPPKDDHTLKFLYDDNQRVEPEWYIPIIPMVLINGAEGIGTGWSCKIPNFDVREIVNNIRRLMDGEEPLPMLPSYKNFKGTIEELAPNQYVISGEVAILNSTTIEISELPVRTWTQTYKEQVLEPMLNGTEKTPPLITDYREYHTDTTVKFVVKMTEEKLAEAERVGLHKVFKLQTSLTCNSMVLFDHVGCLKKYDTVLDILRDFFELRLKYYGLRKEWLLGMLGAESAKLNNQARFILEKIDGKIIIENKPKKELIKVLIQRGYDSDPVKAWKEAQQKVPDEEENEESDNEKETEKSDSVTDSGPTFNYLLDMPLWYLTKEKKDELCRLRNEKEQELDTLKRKSPSDLWKEDLATFIEELEAVEAKEKQDEQVGLPGKGGKAKGKKTQMAEVLPSPRGQRVIPRITIEMKAEAEKKNKKKIKNENTEGSPQEDGVELEGLKQRLEKKQKREPGTKTKKQTTLAFKPIKKGKKRNPWSDSESDRSSDESNFDVPPRETEPRRAATKTKFTMDLDSDEDFSDFDEKTDDEDFVPSDASPPKTKTSPKLSNKELKPQKSVVSDLEADDVKGSVPLSSSPPATHFPDETEITNPVPKKNVTVKKTAAKSQSSTSTTGAKKRAAPKGTKRDPALNSGVSQKPDPAKTKNRRKRKPSTSDDSDSNFEKIVSKAVTSKKSKGESDDFHMDFDSAVAPRAKSVRAKKPIKYLEESDEDDLF
notes: human DNA topoisomerase IIα (TOP2A gene), full length, residues 1-1531; Homodimer; Tags were removed with P3C (PreScission) protease; also called hTopo IIα; human topoisomerase IIα isoform; source: BHK21 C13-2P cells infected with recombinant MVA-T7 virus, purified (Ni chelating resin, StrepTrap, heparin); not shown: Twin-strep, N-terminal, cleaved; His10, C-terminal, cleaved
B1: binds.
